What was measured:
[1] = biological target: CHC17 clathrin heavy chain (human (endogenous in HeLa)) (UniProt Q00610)
[2] = biological target: CHC22 clathrin heavy chain (human (endogenous in HeLa)) (UniProt P53675)
CHC22Δx9 (human) = CHC22Δx9 (human) (UniProt P53675); experiment: deep-etch electron microscopy; purified CHC isoforms adsorbed on mica flakes, quick-frozen, freeze-fractured, deep-etched, platinum-replicated; CHC22Δx9 released in high Tris buffer pH 7.0, CHC17 released in HEPES buffer pH 7.0
[3] = biological target: T1, CHC17 clathrin heavy chain (human (endogenous in HeLa)), Q00610; experiment: as above; conditions: remark: other sources report otherwise
T1 chain: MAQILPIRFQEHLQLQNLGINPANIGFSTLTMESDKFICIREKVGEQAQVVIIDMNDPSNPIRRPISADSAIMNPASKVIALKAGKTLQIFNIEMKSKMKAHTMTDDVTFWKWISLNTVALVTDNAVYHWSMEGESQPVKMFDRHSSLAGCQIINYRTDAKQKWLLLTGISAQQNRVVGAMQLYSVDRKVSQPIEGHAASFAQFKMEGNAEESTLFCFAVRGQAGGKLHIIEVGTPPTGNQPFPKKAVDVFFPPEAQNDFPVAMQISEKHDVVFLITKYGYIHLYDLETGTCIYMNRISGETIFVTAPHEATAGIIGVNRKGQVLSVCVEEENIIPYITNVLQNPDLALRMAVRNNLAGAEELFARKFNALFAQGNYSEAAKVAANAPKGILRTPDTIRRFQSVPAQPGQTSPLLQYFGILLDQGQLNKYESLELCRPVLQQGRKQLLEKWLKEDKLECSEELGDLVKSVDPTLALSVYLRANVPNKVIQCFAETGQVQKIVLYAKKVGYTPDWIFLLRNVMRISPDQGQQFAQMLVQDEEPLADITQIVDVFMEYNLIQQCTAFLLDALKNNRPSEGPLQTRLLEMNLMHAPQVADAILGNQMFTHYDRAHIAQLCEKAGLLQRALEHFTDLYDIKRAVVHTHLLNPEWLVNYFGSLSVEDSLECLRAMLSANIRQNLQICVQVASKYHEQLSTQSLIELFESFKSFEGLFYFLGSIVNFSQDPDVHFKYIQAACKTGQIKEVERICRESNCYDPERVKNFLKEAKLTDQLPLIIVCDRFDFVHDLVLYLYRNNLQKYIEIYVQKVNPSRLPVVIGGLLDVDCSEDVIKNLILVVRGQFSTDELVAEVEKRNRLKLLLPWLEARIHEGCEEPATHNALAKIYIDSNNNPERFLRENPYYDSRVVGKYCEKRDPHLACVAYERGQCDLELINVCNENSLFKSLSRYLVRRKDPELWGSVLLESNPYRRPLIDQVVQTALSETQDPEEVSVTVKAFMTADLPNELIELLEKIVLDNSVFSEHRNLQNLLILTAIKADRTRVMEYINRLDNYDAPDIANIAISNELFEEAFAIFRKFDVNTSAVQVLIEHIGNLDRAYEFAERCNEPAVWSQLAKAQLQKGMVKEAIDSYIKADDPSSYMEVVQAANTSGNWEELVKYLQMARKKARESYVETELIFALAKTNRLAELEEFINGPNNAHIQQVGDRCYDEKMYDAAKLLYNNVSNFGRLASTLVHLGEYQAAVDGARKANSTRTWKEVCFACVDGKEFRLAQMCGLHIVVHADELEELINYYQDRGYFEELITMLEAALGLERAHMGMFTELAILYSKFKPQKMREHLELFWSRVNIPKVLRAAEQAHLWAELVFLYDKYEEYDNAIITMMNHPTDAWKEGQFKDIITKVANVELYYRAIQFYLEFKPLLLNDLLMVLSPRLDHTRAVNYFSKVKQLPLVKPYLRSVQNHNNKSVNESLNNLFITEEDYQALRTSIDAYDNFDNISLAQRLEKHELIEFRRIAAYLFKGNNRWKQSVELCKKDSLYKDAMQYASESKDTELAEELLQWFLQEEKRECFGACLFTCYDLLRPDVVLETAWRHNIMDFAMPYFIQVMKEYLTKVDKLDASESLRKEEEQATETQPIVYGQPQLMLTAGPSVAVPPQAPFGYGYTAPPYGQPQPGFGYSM

Sequence of UniProt P53675 (P53675 whole entry, canonical isoform): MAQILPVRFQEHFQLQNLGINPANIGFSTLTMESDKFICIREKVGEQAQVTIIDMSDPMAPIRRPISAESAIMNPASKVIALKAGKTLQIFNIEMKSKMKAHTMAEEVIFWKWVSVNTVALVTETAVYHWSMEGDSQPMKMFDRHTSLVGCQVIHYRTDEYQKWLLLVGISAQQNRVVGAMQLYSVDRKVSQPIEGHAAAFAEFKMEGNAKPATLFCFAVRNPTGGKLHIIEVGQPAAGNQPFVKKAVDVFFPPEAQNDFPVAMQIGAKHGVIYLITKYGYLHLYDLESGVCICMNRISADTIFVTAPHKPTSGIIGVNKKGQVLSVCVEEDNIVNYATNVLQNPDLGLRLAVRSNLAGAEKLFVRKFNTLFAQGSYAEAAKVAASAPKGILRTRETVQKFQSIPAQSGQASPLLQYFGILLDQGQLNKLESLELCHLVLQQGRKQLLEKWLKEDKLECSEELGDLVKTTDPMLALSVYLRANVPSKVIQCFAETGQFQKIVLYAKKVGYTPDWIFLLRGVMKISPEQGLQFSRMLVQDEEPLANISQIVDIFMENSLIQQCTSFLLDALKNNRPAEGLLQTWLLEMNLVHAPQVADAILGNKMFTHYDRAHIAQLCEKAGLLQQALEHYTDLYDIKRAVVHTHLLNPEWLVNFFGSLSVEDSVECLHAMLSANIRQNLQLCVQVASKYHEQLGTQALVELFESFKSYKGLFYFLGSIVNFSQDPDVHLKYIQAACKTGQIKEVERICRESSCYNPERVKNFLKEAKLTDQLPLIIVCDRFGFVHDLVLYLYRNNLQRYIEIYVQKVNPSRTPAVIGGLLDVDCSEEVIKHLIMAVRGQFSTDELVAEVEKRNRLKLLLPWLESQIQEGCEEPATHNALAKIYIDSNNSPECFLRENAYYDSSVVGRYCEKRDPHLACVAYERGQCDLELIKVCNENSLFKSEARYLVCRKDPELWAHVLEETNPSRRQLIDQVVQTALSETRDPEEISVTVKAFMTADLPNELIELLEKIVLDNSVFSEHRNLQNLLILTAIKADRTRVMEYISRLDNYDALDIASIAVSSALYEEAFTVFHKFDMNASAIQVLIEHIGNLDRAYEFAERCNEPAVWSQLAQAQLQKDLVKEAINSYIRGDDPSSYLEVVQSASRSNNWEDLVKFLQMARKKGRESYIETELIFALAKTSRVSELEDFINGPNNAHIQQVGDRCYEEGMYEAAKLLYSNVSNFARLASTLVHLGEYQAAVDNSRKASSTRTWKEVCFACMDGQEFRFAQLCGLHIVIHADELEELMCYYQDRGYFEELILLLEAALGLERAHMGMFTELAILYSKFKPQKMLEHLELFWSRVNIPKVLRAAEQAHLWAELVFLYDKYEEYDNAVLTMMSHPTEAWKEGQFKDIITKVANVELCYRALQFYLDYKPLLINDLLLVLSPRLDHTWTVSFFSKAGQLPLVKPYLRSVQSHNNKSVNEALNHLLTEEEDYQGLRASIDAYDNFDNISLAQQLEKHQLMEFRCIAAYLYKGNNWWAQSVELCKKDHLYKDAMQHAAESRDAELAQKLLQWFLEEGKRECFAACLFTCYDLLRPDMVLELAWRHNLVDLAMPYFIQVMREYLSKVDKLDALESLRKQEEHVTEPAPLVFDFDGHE

Molecule: 70-kDa heat-shock cognate protein (Hsc70) (from UniProt P63018 1-646) (enzyme)
- release of CHC from HeLa CCVs into the supernatant, S/(S+P) by immunoblot, with uncoating complex (Hsc70 1.3 μM + GST-auxilin(401–910) 0.13 μM) plus ATP 0.5 mM, 10 min, 37 °C [1]: > 50%
- release of CHC from HeLa CCVs into the supernatant, S/(S+P) by immunoblot, with uncoating complex (Hsc70 1.3 μM + GST-auxilin(401–910) 0.13 μM) plus ATP 0.5 mM, 10 min, 37 °C [2]: 16%

Molecule: CHC22Δx9 (from UniProt P53675 1-1640) (natural protein)
- stoichiometry N (CHC22Δx9 (human)): 3

B1: CHC17 clathrin heavy chain, Q00610 1-1675 (natural protein)
chain: T1 chain
- stoichiometry N [3]: 3
